Test results: US20180251562A1 (XOMA US, published 2018)
Read-outs that look alike come from different tables or passages of the source.

Tests used:
[1] = target: T1, human insulin receptor (INSR) on CHOK1 cells (human, UniProt P06213 28-1382); assay: binding to CHO cells expressing human INSR; 2nd column headed CHO Human INSR; quantity and unit not printed [cont'd]
T1 construct: whole, on cells; CHOK1 cells over-expressing human INSR; also called human INSR; hINSR

[2] = target: T2, cynomolgus insulin receptor (INSR) on CHOK1 cells (cyno, UniProt A0A7N9D6H3 48-1390); assay: cell-based or functional assay
[3] = target: T1, human insulin receptor (INSR) on CHOK1 …; assay: cell-based or functional assay
[4] = target: T3, minipig insulin receptor (INSR) on CHOK1 cells (minipig, UniProt F1SCL0 28-758; F1SCL0 763-1382); assay: cell-based or functional assay
[5] = target: T4, rat insulin receptor (INSR) on CHOK1 cells (rat, UniProt P15127 27-1383); assay: cell-based or functional assay
[6] = target: T2, cynomolgus insulin receptor (INSR) on …; assay: binding to CHO cells expressing cyno INSR; 1st column headed CHO Cyno INSR; quantity and unit not printed [cont'd]
[7] = target: T4, rat insulin receptor (INSR) on CHOK1 …; assay: binding to CHO cells expressing rat INSR; 2nd column headed CHO Rat INSR (the 1st column's numbers with more digits); quantity and unit not printed [cont'd]
[8] = target: T1, human insulin receptor (INSR) on CHOK1 …; assay: cell-based or functional assay; remark: listed apart in the source
[9] = target: T4, rat insulin receptor (INSR) on CHOK1 …; assay: binding to CHO cells expressing rat INSR; 1st column headed CHO Rat INSR; quantity and unit not printed [cont'd]
[10] = target: T5, solubilized human INSR (B isoform) from CHO-hINSR-B cells, without insulin (human, UniProt P06213 28-1382); assay: SPR (ProteOn XPR36), solubilized INSR-B captured by CT-3 mAb, Fab injected, -insulin
T5 construct: mature; Detergent-solubilized full-length receptor in cell lysate, captured on the SPR chip by its carboxy-terminal part; also called solubilized INSR

[11] = target: T6, Recombinant human insulin receptor (B form) ECD (R&D Systems) (human, UniProt P06213 28-956, limits assumed); assay: SPR (Biacore 2000), INSR-ECD immobilised, purified Fab injected, 1:1 fit
T6 construct: extracellular domain; also called INSR-ECD; h-INSR

[12] = target: T1, human insulin receptor (INSR) on CHOK1 …; assay: cell-based or functional assay; remark: listed apart in the source
[13] = target: T2, cynomolgus insulin receptor (INSR) on …; assay: binding to CHO cells expressing cyno INSR; 2nd column headed CHO Cyno INSR (same numbers as the 1st); quantity and unit not printed [cont'd]
[14] = target: T2, cynomolgus insulin receptor (INSR) on …; assay: flow cytometry on CHOK1 cells expressing the INSR ortholog; Fab, anti-human kappa FITC detection
[15] = target: T1, human insulin receptor (INSR) on CHOK1 …; assay: as above
[16] = target: T3, minipig insulin receptor (INSR) on …; assay: as above
[17] = target: T4, rat insulin receptor (INSR) on CHOK1 …; assay: as above
[18] = target: T1, human insulin receptor (INSR) on CHOK1 …; assay: binding to CHO cells expressing human INSR; 1st column headed CHO Human INSR; quantity and unit not printed [cont'd]
[19] = target: T1, human insulin receptor (INSR) on CHOK1 …; assay: flow cytometry on CHO cells expressing human INSR
[20] = target: T1, human insulin receptor (INSR) on CHOK1 …; assay: flow cytometry on CHO cells expressing human INSR; remark: listed apart in the source
[21] = target: T5, solubilized human INSR (B isoform) from …; assay: SPR (ProteOn XPR36), solubilized INSR captured by CT-3 mAb, antibody injected, no insulin
[22] = target: T2, cynomolgus insulin receptor (INSR) on …; assay: flow cytometry on CHOK1 cells expressing the INSR ortholog; IgG, anti-human IgG APC detection
[23] = target: T1, human insulin receptor (INSR) on CHOK1 …; assay: as above
[24] = target: T3, minipig insulin receptor (INSR) on …; assay: as above
[25] = target: T4, rat insulin receptor (INSR) on CHOK1 …; assay: as above
[26] = target: T6, Recombinant human insulin receptor (B …); assay: SPR (Biacore 2000), INSR-ECD immobilised, purified Fab injected, 1:1 fit [cont'd]
[27] = target: T6, Recombinant human insulin receptor (B …); assay: SPR (Biacore 2000), INSR-ECD immobilised; relative to 247.2.018 Fab

| CHO Human INSR [1] | EC50 (nM), pAKT signaling assay [2] | EC50 (nM), pAKT signaling assay [3] | EC50 (nM), pAKT signaling assay [4] | EC50 (nM), pAKT signaling assay [5] | CHO Cyno INSR [6] | CHO Rat INSR [7] | EC50, pAKT assay at the EC80 concentration of insulin [8] | CHO Rat INSR [9] | Kd [11] | Potency EC50 value [nM] [cont'd] [12] | CHO Cyno INSR [13] | CHO Human INSR [18] | Kd [21] | EC50 [22] | EC50 [23] | EC50 [24] | EC50 [25] | Binder | other results |
| --- | --- | --- | --- | --- | --- | --- | --- | --- | --- | --- | --- | --- | --- | --- | --- | --- | --- | --- | --- |
| 1.63 | 2.8 nM | 3.3 nM | 2.5 nM | 4.2 nM | 2.62 | 1.28 | 7.7 nM | 1.28 | 9.7 nM | 1.31 nM | 2.62 | 2.2 | – | – | – | – | – | XPA.15.247.2.018 Fab (Fab, V domains shown, Monomeric Fab; also called XPA.247.2.018) VH: EVQLVETGGGVVQPGRSLRLSCAASGFTFSSYAMHWVRQAPGKGLEWVAVISYSGSNKYYADSVKGRFTISRDNSKNTLYLQMNSLRAEDTAVYYCARHEWGFGFDYWGQGTTVTVSS VL: DVVMTQSPLSLPVTLGQPASISCRSSQSLVYGDGNTYLNWFQQRPGQSPRRLIYKVSNRDSGVPDRFSGSGSGTEFTLKISRVEAEDVGVYFCMQGTYWPGTFGGGTKLEIKR | Kd [10]: 6.9 nM; EC50 [14]: 21.9 nM; EC50 [15]: 1.6 nM; EC50 [16]: 2 nM; EC50 [17]: 1.9 nM; EC50 (read off the curve) [19]: ~0.2 µg/mL |
| – | 0.2 nM | 0.3 nM | 0.3 nM | 0.4 nM | – | – | – | – | – | – | – | – | 6.6 nM | 1.4 nM | 0.3 nM | 0.5 nM | 0.4 nM | XPA.15.247.2.018 IgG (antibody, V domains shown, Tested as IgG; also called XPA.15.247.2.018 antibody) VH: EVQLVETGGGVVQPGRSLRLSCAASGFTFSSYAMHWVRQAPGKGLEWVAVISYSGSNKYYADSVKGRFTISRDNSKNTLYLQMNSLRAEDTAVYYCARHEWGFGFDYWGQGTTVTVSS VL: DVVMTQSPLSLPVTLGQPASISCRSSQSLVYGDGNTYLNWFQQRPGQSPRRLIYKVSNRDSGVPDRFSGSGSGTEFTLKISRVEAEDVGVYFCMQGTYWPGTFGGGTKLEIKR | EC50 (read off the curve) [20]: ~0.8 µg/mL |
| – | 30.7 nM | 34.5 nM | 20.7 nM | 46.2 nM | – | – | 34.7 nM | – | – | – | – | – | 10 nM | 13.6 nM | 8.8 nM | 12 nM | 9.7 nM | XPA.15.247 parent antibody (IgG) (antibody, V domains shown, Tested as IgG; also called XPA.15.247 antibody) VH: EVQLVETGGGVVQPGRSLRLSCAASGFTFSSYAMHWVRQAPGKGLEWVAVISYDGSNKYYADSVKGRFTISRDNSKNTLYLQMNSLRAEDTAVYYCARHEWGFGMDVWGQGTTVTVSS VL: DVVMTQSPLSLSVTLGQPASISCRSSLSLVYGDENTYLNWFQQRPGQSPRRLLYKVSDRDSGVPDRFSGSGSGTDFTLKISRVEADDVGVYYCMQGTHWPYTFGQGTKLEIKR | koff [21]: 0.000471 s⁻¹; kon [21]: 38500 M⁻¹ s⁻¹ |
| 0.791 | – | – | – | – | 0.728 | 0.621 | – | 0.621 | 1.4 nM | 1.16 nM | 0.728 | 1.06 | – | – | – | – | – | RHF.15.05896.075 (Fab, V domains shown, Untagged Fab) VH: EVQLVETGGGVVQPGRSLRLSCAASGFKFSSYAMHWVRQAPGKGLEWVAVISYSGSNKYYADSVKGRFTISRDNSKNTLYLQMNSLRAEDTAVYYCARHEWGFGYDYWGQGTTVTVSS VL: DVVMTQSPLSLPVTLGQPASISCRSSQSLVYGDGNTYLNWFQQRPGQSPRRLIYKVSNRDSGVPDRFSGSGSGTEFTLKISRVEAEDVGVYFCMQGTYWPGTFGGGTKLEIKR | koff [26]: 0.00045 s⁻¹; kon [26]: 320000 M⁻¹ s⁻¹; Fold KD Improvement [27]: 7 fold |
